We go through 2 substances from paper PMC6556434.

In general, Kd refers to the concentration at which binding is half-saturated. A low value points to tighter binding. A word on the stoichiometry N: it is the number of molecules, sites or subunits per partner or assembly.

Assay in all cases: ITC
The target of one test is H3(1-15)K4me3 peptide.
The target in another test is H3(20-35)K27me3 peptide.
The target of test [1] is H3(1-35)K4me3K27me3 doubly methylated peptide.

For “EARLY BOLTING IN SHORT DAY (EBS), full length (from UniProt F4JL28 1-234) (natural protein)”, the results for the dissociation constant Kd in the test with H3(1-15)K4me3 peptide and with H3(20-35)K27me3 peptide were 86.8 µM and 49.8 µM, respectively.

“EBS without the C-terminal autoinhibition loop (EBSΔC, 1-199) (from UniProt F4JL28 1-199) (domain or fragment)” displayed a stoichiometry N in test [1] of 1. In the test with H3(1-15)K4me3 peptide, the Kd was found to be 30.7 µM.
